Experimental findings from the nanobody polyreactivity screen of Harvey et al. (2022) are described below.

The data set can be described thus: yeast display, Sf9 membrane polyspecificity reagent, FACS + sequencing; frameworks hold sequencing errors. The gist of the method:
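Galactose induction of a Saccharomyces cerevisiae BJ5465 synthetic nanobody display library ran 36–48 hours. The cells were then stained for 1 hour at 4 °C with 10% biotinylated, detergent-solubilized Sf9 membrane reagent, pulled down on streptavidin microbeads and FACS-sorted into low and high (top ~1%) gates on expression and reagent-binding fluorescence. Labels for polyreactivity follow the gate of origin.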
For “QVQLVESGGGLVQAGGSLRLSCAASGRTFGYYAMGWYRQAPGKERELVAAITRTGGSTHYADSVKGRFTISRDNAKNTVYLQMNSLKPEDTAVYYCARDYRYTIPYDYWGQGTQVTVSS”, the “polyreactivity (PSR sort gate)” value is reported as “low polyreactivity”.

Turning to “QVQLVESGGGLVQAGGSLRLSCAASGRTFGYYAMGWYRQAPGKERELVAAITWIGGSTYADSVKGRFTISRDNAKNTVYLQMNSLKPEDTAVYYCAADPSVWSDYYYWGQGTQVTVSS”, the “polyreactivity (PSR sort gate)” value is listed as “high polyreactivity”.

Regarding “QVQLVESGGGLVQAGGSLRLSCAASGRTFGYYAMGWYRQAPGKVRELVASISSSGGNTYYADSVKGRFTISRDNAKNNVYLQMNSLKPEDTAVYYCAATYGWWPRDYYYWGQGTQVTVSS”, the “polyreactivity (PSR sort gate)” value is “high polyreactivity”.

Consider “QVQLVESGGGLVQAGGSLRLSCAASGRTFGYYDMGWYRPAPGKERELVAAITWIDGRTYYADSVKGRFTISRDNAKNTVYLQMNSLKPEDTAVYYCAKRHKAGFYRTYRYGYWGQGTQVTVSS”, for which the “polyreactivity (PSR sort gate)” value was “high polyreactivity”.

Consider “QVQLVESGGGLVQAGGSLRLSCAASGRTFGYYGMGWYRQAPGKERELVAAIRRRSGSTYYADSVKGRFTISRDNSKNTFYLQMNSLKPEDTAVYYCNQIRVSNFDYWGQGTQVTVSS”, for which the “polyreactivity (PSR sort gate)” value was “high polyreactivity”.

As to “QVQLVESGGGLVQAGGSLRLSCAASGRTFGYYGMGWYRQAPGKERELVAAITGSGGSTYYADSVKGRFTISRDNAKNTVYLQMNSLKPEDTAVYYCGATDLSRWTLYDYCGQGTQVTVSS”, the “polyreactivity (PSR sort gate)” value is “high polyreactivity”.

With “QVQLVESGGGLVQAGGSLRLSCAASGRTFGYYGMGWYRQAPGKERELVASINFSSGSTFYADSVKGRFTISRDNAKNTVYLQMNSLKPEDTAVYYCAARAKAVRSYAYNYWGQGTQVTVSS”, the “polyreactivity (PSR sort gate)” value is reported as “low polyreactivity”.

On to “QVQLVESGGGLVQAGGSLRLSCAASGRTFGYYTMGWYRQAPGKERELVARINYIGSSTYYADSVKGRFTISRDNAKNTVYLHMNSLKPEDTAVYYSNADNARGRSGVRRYYWGQGTQVTVSS”, for which the “polyreactivity (PSR sort gate)” value is on record as “high polyreactivity”.

For “QVQLVESGGGLVQAGGSLRLSCAASGRTFHAYVMGWYRQAPGKERELVADISSGGDTYADSVKGRFTISRDNAKNTVYLQMNSLKPEDTAVYYCAVDLIQDESGYWGQGTQVTVSS”, the “polyreactivity (PSR sort gate)” value is given as “low polyreactivity”.

Turning to “QVQLVESGGGLVQAGGSLRLSCAASGRTFHGNAKGWYRTAPGKERELVAAISYSGGRTYYADSVKARFTISRDNAKNTVYLQMNSLKPEDTAVYYCAAWGSSYSFDYWGQGTQVTVSS”, the “polyreactivity (PSR sort gate)” value is on record as “high polyreactivity”.

Regarding “QVQLVESGGGLVQAGGSLRLSCAASGRTFHGYAMGWSRQAPGKERELVARINWSDGRTYYADSVKGRFTISRDNAKNTVYLQMNSLKPADTGVYYCAARLYSSASGVRWIKFDYWGQGTQVTVSS”, the “polyreactivity (PSR sort gate)” value is “low polyreactivity”.

Consider “QVQLVESGGGLVQAGGSLRLSCAASGRTFHRYAMGWYRQAPGKERELVAAINWRGGSTYYADSVKGRFTISRDNAKNTVYLQMNILKPEDTEVYYCAAKTTTPYRYIYYYWGQGTQVTVSS”, for which the “polyreactivity (PSR sort gate)” value is on record as “high polyreactivity”.

Consider “QVQLVESGGGLVQAGGSLRLSCAASGRTFHRYVMGWYRQAPGKERELVAAITRSGGITYYADSVKGRFTISRDNAKNTVYLQMNSLKPEDNAVYYCAKDDLTASGFDYWGQGTQVTVSS”, for which the “polyreactivity (PSR sort gate)” value is on record as “low polyreactivity”.

For “QVQLVESGGGLVQAGGSLRLSCAASGRTFHSYAMGWYRQAPGKERELVAVITRRGGSTYYADSVKGRFTISRDNAKNTVYLQMNSLKPEDTAVYYCNKGKSYTYDYWGQGTQVTVTS”, the “polyreactivity (PSR sort gate)” value was “high polyreactivity”.

With “QVQLVESGGGLVQAGGSLRLSCAASGRTFHSYAMGWYRQAPGKEWELVAGISWGGTRTTYADSVKGRFTISRDNSKNTVYLQMNSLKPEDTAVYYCNAVYYALGRSPPDYGYWGQGTQVTVSS”, the “polyreactivity (PSR sort gate)” value is recorded as “low polyreactivity”.

Consider “QVQLVESGGGLVQAGGSLRLSCAASGRTFHVYARGWYRQAPGKERELVAAISGRTGSTYYADSVKGRFTISRDNAKNTVYLQMNSLKPEDTAVYYCAARRWSHGTGYGSWGQGTQVTVSS”, for which the “polyreactivity (PSR sort gate)” value was “high polyreactivity”.

Regarding “QVQLVESGGGLVQAGGSLRLSCAASGRTFHYYVMGWYRQAAGKERELVAAISRSGGNTYYADSVKGRFTISRDNAKNTVYLQMNSLKPEDTAVYYCAAALSAYVKWDYYYWGQGTQVTVSS”, the “polyreactivity (PSR sort gate)” value was “low polyreactivity”.

As for “QVQLVESGGGLVQAGGSLRLSCAASGRTFHYYVMGWYRQAPGKERELVAAISRSGGNTYYADSVKGRFTISLDNAKNTVYLQMNSLKPEDTAVYYCAAALSAYVKWDYYYWGQGTQVTVSS”, the “polyreactivity (PSR sort gate)” value is on record as “low polyreactivity”.

“QVQLVESGGGLVQAGGSLRLSCAASGRTFIFNAMGWYRQAPGKERELVAAISSGGGTNYADSVKWRFTISRDNAKNTVYLQMNSMKPEDTAVYYCAAVPRDHYSYVYDGDKYDYWGQGTQVTVSS”: the “polyreactivity (PSR sort gate)” value is recorded as “low polyreactivity”.

Take “QVQLVESGGGLVQAGGSLRLSCAASGRTFIGNAMGWSRQAPGKERELVAGIDSDGSTNYADSVKGRFTISRDNAKNTVYLQMNSLKPEDTAVYYCAAVQGYRFYEYYYWGQGTQVTVSS”: the “polyreactivity (PSR sort gate)” value is listed as “low polyreactivity”.

On to “QVQLVESGGGLVQAGGSLRLSCAASGRTFIGYAMGWYRQAPGKERELVAAISSRGGRTYYADSVKGRFTISRDNAKNTVYLQMNSLKPEDTAVYYCAAGRVKHSGYDYWGQGTQVTVSS”, for which the “polyreactivity (PSR sort gate)” value was “high polyreactivity”.

Regarding “QVQLVESGGGLVQAGGSLRLSCAASGRTFIGYAMGWYRQAPGKERELVAAISSSGGRTYYADSVKGRFTISRDNAKNTVYLQMNSLKPEDTAVYYCNAVRYVLGYSYDYNYWGQGTQVTVSS”, the “polyreactivity (PSR sort gate)” value is “high polyreactivity”.

“QVQLVESGGGLVQAGGSLRLSCAASGRTFIGYAMGWYRQAPGKERELVAAITSSGGSTYYSDSVKGRFTISRDNAKNTVYLQMNSLKPEDTAVYYCAAGRHSEDNYWGQGTQVTVSS”: the “polyreactivity (PSR sort gate)” value is recorded as “high polyreactivity”.

Consider “QVQLVESGGGLVQAGGSLRLSCAASGRTFIKYARGWYRPAPGKERELVAAISRNGGSTNYADSVKGRFTISRDNAKNTVYFQMNSLKPEDTAVYYCAAVGTVSRTVGYNYWGQGTQVTVSS”, for which the “polyreactivity (PSR sort gate)” value was “high polyreactivity”.

As for “QVQLVESGGGLVQAGGSLRLSCAASGRTFIPNAMGWYRQAPGKERELVARITLRGGSTYYADSVKGRFTISRDNAKNTVYLQMNSLKPEDTAVYYCAAVFSRKGLRYDYWGQGTQVTVSS”, the “polyreactivity (PSR sort gate)” value was “low polyreactivity”.

“QVQLVESGGGLVQAGGSLRLSCAASGRTFIPYAMGWYRQAPGKERELVATISRSGGSTYYADSVKGRFTISRDNAKNTVYLQMNSLKPEDSAVYYCAAQWVRKSGREGYWGQGTQVTVSS”: the “polyreactivity (PSR sort gate)” value was “high polyreactivity”.

As to “QVQLVESGGGLVQAGGSLRLSCAASGRTFIRYAMGWYRQAPGKERELVAAISSRGGRTHYADSVKGRFTISRDNAKNTVYLQMNSLKPEDTAVYYCAADLTYVTVPGASYDYWGQGTQVTVSS”, the “polyreactivity (PSR sort gate)” value is reported as “low polyreactivity”.

“QVQLVESGGGLVQAGGSLRLSCAASGRTFISNAMGWYRQAPGKERELVADINGGGSTYYADSVKGRFTISRDNAKNTVYLQINSLKPEDTAVYYCAADVWTLDPDEYDYWGQGTQVTVSS”: the “polyreactivity (PSR sort gate)” value is “low polyreactivity”.

As for “QVQLVESGGGLVQAGGSLRLSCAASGRTFITNAMGWSRPAPGKEREFVAAIRGGRGSTYYADSVKGRFTISRDNAKNTVYLQMNSVKPEDTAVYFCAARYWLFPRGYNYWGQGTQVTVSS”, the “polyreactivity (PSR sort gate)” value is “high polyreactivity”.

Turning to “QVQLVESGGGLVQAGGSLRLSCAASGRTFIVYAMGWYRQAPGKERELVAAITTSLGRTYYADSVKGRFTISRDNAKNTVYLQMNSLKPEDTAVYYCAADRLDGYSEYYYWGQGTQVTVSS”, the “polyreactivity (PSR sort gate)” value is listed as “low polyreactivity”.
